The target in the test is serum antibodies (IgG) of Sardinian T1D patients, Example 1 (n=34; Ab+ sera) (human). Nature of the test: competition ELISA on MAP3865c125-133-coated plates, sera pre-adsorbed with saturating peptide. Background: An ELISA detects its analyte on a solid surface through an enzyme-linked reagent.

B1: ZnT8178-186 peptide (…) (peptide)
peptide: MIIVSSCAV
Turning to B1, the percent inhibition lay in the range of 57 to 89%.

The values are drawn from patent publication US20140271701A1.
